Consider two molecules from patent US20100074906A1.

The target of this assay is Varicella Zoster Virus (VZV) antigens (lysate of VZV-infected MRC-5 cells, VZV-infected MRC-5 cells, cell-free VZV; ELLEN strain) (Varicella Zoster Virus (ELLEN strain, ATCC VR-586)). The experiment in a line: cell-based or functional assay.

B1: FLAGhis-tagged DDF-VZV1 human Fab expressed using pDLac-VZV1-FLAGhis (Fab)
heavy: LESGPGLVKPSETLSLTCSVSGGSITTKDFSWAWIRQPPGKGLEWIGSIYYSGTTHYSPSLKSRVIMSVDTSDNKFSLSLTSVTAADTAVYYCARQLGRSPGIYSFWRDHRTSAFDFWGQGTLATVSAASTKGPSVFPLAPSSKSTSGGTAALGCLVKDYFPEPVTVSWNSGALTSGVHTFPAVLQSSGLYSLSSVVTVPSSSLGTQTYICNVNHKPSNTKVDKKVEPKSCDKTSDYKDDDDKHHHHHH
light: ELTQSPSSLSASVGDRVTITCRATQSISSYLSWYQQKPGQAPKLLIYGASNLQSGVPSRFSGSGSGTDFTLTINSLQPEDFATYYCQQTLSTPFTFGPGTRVDFKRTVAAPSVFIFPPSDEQLKSGTASVVCLLNNFYPREAKVQWKVDNALQSGNSQESVTEQDSKDSTYSLSSTLTLSKADYEKHKVYACEVTHQGLSSPVTKSFNRGEC
In turn, B1 gave a VZV-neutralizing activity, IC50 (plaque reduction) of 2 mg/L.

B2: FLAGhis-tagged DDF-VZV2 human Fab expressed using pDLac-VZV2-FLAGhis (Fab)
heavy: LESGGGLVQPGGSLRLSCEASGFTFSSYTMNWVRQAPGKGLEWVSWISSSGSDIYYAESVKGRFTISRDNAKNSLYLQMNSLRDEDTALYYCARDGIDSSSSWGGEPYFYTMDFWGQGTTVIVSSASTKGPSVFPLAPSSKSTSGGTAALGCLVKDYFPEPVTVSWNSGALTSGVHTFPAVLQSSGLYSLSSVVTVPSSSLGTQTYICNVNHKPSNTKVDKKVEPKSCDKTSDYKDDDDKHHHHHH
light: not shown
In the case of B2, the VZV-neutralizing activity, IC50 (plaque reduction) was 2 mg/L.
